From US20180155451A1 (published 2018)

Legend:
[1] = biological target: T1, FcγRIIIa extracellular domain with C-terminal His tag (human, UniProt P08637 17-208); assay: SPR (Biacore), antibody captured, FcγRIIIa as analyte, 1:1 Langmuir kinetic fit
T1 construct: extracellular domain; also called FcgRIIIa; CD16A
Method: The prepared antibodies were compared for the FcγRIIIa-binding activity using, as an indicator, KD for FcγRIIIa that was determined according to the method described in Reference Example 2.
(§1) Analysis of interaction between objective antibody and the FcγR was carried out using Biacore T100 (GE Healthcare). HBS-EP+ (GE Healthcare) was used as the running buffer, and the measurement temperature was set to 25° C. Chips produced by immobilizing the antigen peptide by the amine coupling method to a Series S Sencor Chip CM5 (GE Healthcare), or alternatively, chips produced by allowing preliminarily biotinylated antigen peptides to interact with and immobilize onto a Series S Sensor Chip SA (certified) (GE Healthcare) were used. Antibodies of interest were captured onto an antigen peptide-immobilized chip, and allowed to interact to each FcγR diluted with running buffer. To regenerate and repeatedly use the chip, the antibodies captured on the chip were washed off by reacting 10 mM glycine-HCl, pH 1.5.
The FcγR-binding activity of each antibody was assessed primarily using as an indicator the FcγR-binding activity and dissociation constant for FcγR.

[2] = biological target: T1, FcγRIIIa extracellular domain with …; assay: SPR (Biacore), antibody captured on antigen peptide chip, FcγR as analyte
Method: GpH7-TA8 (SEQ ID NO: 33) and GpH7-B12 (SEQ ID NO: 12) resulting from the introduction of P329R into GpH7-TA7 and GpH7-B3, respectively, were prepared according to the method described in Reference Example 1.
as §1

[3] = biological target: T1, FcγRIIIa extracellular domain with …; assay: SPR (Biacore), ratio of KD values for FcγRIIIa
Description: GpH7-A57 (SEQ ID NO: 40) resulting from the introduction of all of S239D, A330L, and I332E into GpH7-A5; GpH7-B78 (SEQ ID NO: 41) resulting from the introduction of all of S239D, A330L, and I332E into GpH7-B3; GpH7-TA7 (SEQ ID NO: 31) resulting from the introduction of all of L234Y, G236W, and S298A into GpH7-A5; and GpH7-TA45 (SEQ ID NO: 32) resulting from the introduction of all of L234Y, G236W, and S298A into GpH7-B3. […] The prepared antibodies were compared for the FcγRIIIa-binding activity using, as an indicator, KD for FcγRIIIa that was determined according to the method described in Reference Example 2.
as §1

[4] = biological target: T1, FcγRIIIa extracellular domain with …; assay: SPR (Biacore), antibody captured on antigen peptide chip, FcγR as analyte; remark: listed apart in the source
Method: Specifically, GpH7-TA7 and GpH7-TA45 (SEQ ID NO: 32) resulting from the introduction of L234Y, G236W, and S298A into GpH7-A5 and GpH7-B3, respectively, were prepared according to the method described in Reference Example 1. […] These antibodies were compared for the FcγRIIIa binding according to the method described in Reference Example 2 (Table 10).
as §1

T1 sequence (P08637 17-208): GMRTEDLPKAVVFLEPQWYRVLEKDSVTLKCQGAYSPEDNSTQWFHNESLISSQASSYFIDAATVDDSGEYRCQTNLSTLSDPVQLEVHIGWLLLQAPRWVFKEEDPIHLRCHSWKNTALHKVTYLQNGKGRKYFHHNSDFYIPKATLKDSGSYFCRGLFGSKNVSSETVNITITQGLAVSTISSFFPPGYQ

Binder	Kd [1] [nM]	FcγRIIIa BINDING ACTIVITY (relative) [2]	KD ratio 1 (KD of GpH7-G1d/GpL16-k0 divided by KD of the antibody) [3] [fold]	KD ratio 2 (KD of GpH7-A5/GpH7-B3/GpL16-k0 divided by KD of the antibody) [3] [fold]	FcγR BINDING ACTIVITY (relative FcγRIIIa binding) [4]
GpH7-A5/GpH7-B3/GpL16-k0 (antibody, human IgG1, kappa, also called HeCon Ab; control heterodimerized antibody) heavy 1: not shown heavy 2: not shown light: DIVMTQSPLSLPVTPGEPASISCQASESLVHSNRNTYLHWYLQKPGQSPQLLIYKVSNRFSGVPDRFSGSGSGTDFTLKISRVEAEDVGVYYCSQNTHVPPTFGQGTKVEIERTVAAPSVFIFPPSDEQLKSGTASVVCLLNNFYPREAKVQWKVDNALQSGNSQESVTEQDSKDSTYSLSSTLTLSKADYEKHKVYACEVTHQGLSSPVTKSFNRGEC	1600	100 relative, GpH7-A5/GpH7-B3/GpL16-k0 = 100	0.75	1	100 relative, GpH7-A5/GpH7-B3/GpL16-k0 = 100
GpH7-A5/GpH7-TA45/GpL16-k0 (antibody, human IgG1, kappa, Heterodimerized anti-glypican-3 IgG1 variant) heavy 1: not shown heavy 2: QVQLVQSGAEVKKPGASVTVSCKASGYTFTDYEMHWIRQPPGEGLEWIGAIDPKTGDTAYSESFQDRVTLTADKSTSTAYMELSSLTSEDTAVYYCTRFYSYTYWGQGTLVTVSSASTKGPSVFPLAPSSKSTSGGTAALGCLVKDYFPEPVTVSWNSGALTSGVHTFPAVLQSSGLYSLSSVVTVPSSSLGTQTYICNVNHKPSNTKVDKKVEPKSCDKTHTCPPCPAPEYLWGPSVFLFPPKPKDTLMISRTPEVTCVVVDVSHEDPEVKFNWYVDGVEVHNAKTKPREEQYNATYRVVSVLTVLHQDWLNGKEYKCKVSNKALPAPIEKTISKAKGQPREPQVYTLPPSRDELTKNQVSLTCLVKGFYPSDIAVEWESNGQPENNYKTTPPVLDSDGSFFLYSKLTVDKSRWQQGNVFSCSVMHEALHNHYTQESLSLSP light: DIVMTQSPLSLPVTPGEPASISCQASESLVHSNRNTYLHWYLQKPGQSPQLLIYKVSNRFSGVPDRFSGSGSGTDFTLKISRVEAEDVGVYYCSQNTHVPPTFGQGTKVEIERTVAAPSVFIFPPSDEQLKSGTASVVCLLNNFYPREAKVQWKVDNALQSGNSQESVTEQDSKDSTYSLSSTLTLSKADYEKHKVYACEVTHQGLSSPVTKSFNRGEC	–	–	–	–	225 relative, GpH7-A5/GpH7-B3/GpL16-k0 = 100
GpH7-TA7/GpH7-B3/GpL16-k0 (antibody, human IgG1, kappa, Heterodimerized anti-glypican-3 IgG1 variant) heavy 1: QVQLVQSGAEVKKPGASVTVSCKASGYTFTDYEMHWIRQPPGEGLEWIGAIDPKTGDTAYSESFQDRVTLTADKSTSTAYMELSSLTSEDTAVYYCTRFYSYTYWGQGTLVTVSSASTKGPSVFPLAPSSKSTSGGTAALGCLVKDYFPEPVTVSWNSGALTSGVHTFPAVLQSSGLYSLSSVVTVPSSSLGTQTYICNVNHKPSNTKVDKKVEPKSCDKTHTCPPCPAPEYLWGPSVFLFPPKPKDTLMISRTPEVTCVVVDVSHEDPEVKFNWYVDGVEVHNAKTKPREEQYNATYRVVSVLTVLHQDWLNGKEYKCKVSNKALPAPIEKTISKAKGQPREPQVYTLPPSRKELTKNQVSLTCLVKGFYPSDIAVEWESNGQPENNYKTTPPVLDSDGSFFLYSKLTVDKSRWQQGNVFSCSVMHEALHNRYTQKSLSLSP heavy 2: not shown light: DIVMTQSPLSLPVTPGEPASISCQASESLVHSNRNTYLHWYLQKPGQSPQLLIYKVSNRFSGVPDRFSGSGSGTDFTLKISRVEAEDVGVYYCSQNTHVPPTFGQGTKVEIERTVAAPSVFIFPPSDEQLKSGTASVVCLLNNFYPREAKVQWKVDNALQSGNSQESVTEQDSKDSTYSLSSTLTLSKADYEKHKVYACEVTHQGLSSPVTKSFNRGEC	320	210 relative, GpH7-A5/GpH7-B3/GpL16-k0 = 100	3.8	5.1	210 relative, GpH7-A5/GpH7-B3/GpL16-k0 = 100
GpH7-TA7/GpH7-B12/GpL16-k0 (antibody, human IgG1, kappa, Heterodimerized anti-glypican-3 IgG1 variant) heavy 1: QVQLVQSGAEVKKPGASVTVSCKASGYTFTDYEMHWIRQPPGEGLEWIGAIDPKTGDTAYSESFQDRVTLTADKSTSTAYMELSSLTSEDTAVYYCTRFYSYTYWGQGTLVTVSSASTKGPSVFPLAPSSKSTSGGTAALGCLVKDYFPEPVTVSWNSGALTSGVHTFPAVLQSSGLYSLSSVVTVPSSSLGTQTYICNVNHKPSNTKVDKKVEPKSCDKTHTCPPCPAPEYLWGPSVFLFPPKPKDTLMISRTPEVTCVVVDVSHEDPEVKFNWYVDGVEVHNAKTKPREEQYNATYRVVSVLTVLHQDWLNGKEYKCKVSNKALPAPIEKTISKAKGQPREPQVYTLPPSRKELTKNQVSLTCLVKGFYPSDIAVEWESNGQPENNYKTTPPVLDSDGSFFLYSKLTVDKSRWQQGNVFSCSVMHEALHNRYTQKSLSLSP heavy 2: not shown light: DIVMTQSPLSLPVTPGEPASISCQASESLVHSNRNTYLHWYLQKPGQSPQLLIYKVSNRFSGVPDRFSGSGSGTDFTLKISRVEAEDVGVYYCSQNTHVPPTFGQGTKVEIERTVAAPSVFIFPPSDEQLKSGTASVVCLLNNFYPREAKVQWKVDNALQSGNSQESVTEQDSKDSTYSLSSTLTLSKADYEKHKVYACEVTHQGLSSPVTKSFNRGEC	–	11 relative, GpH7-A5/GpH7-B3/GpL16-k0 = 100	–	–	–
GpH7-TA7/GpH7-TA45/GpL16-k0 (antibody, human IgG1, kappa, the chains differ only in D356K/H435R against K439E) heavy 1: QVQLVQSGAEVKKPGASVTVSCKASGYTFTDYEMHWIRQPPGEGLEWIGAIDPKTGDTAYSESFQDRVTLTADKSTSTAYMELSSLTSEDTAVYYCTRFYSYTYWGQGTLVTVSSASTKGPSVFPLAPSSKSTSGGTAALGCLVKDYFPEPVTVSWNSGALTSGVHTFPAVLQSSGLYSLSSVVTVPSSSLGTQTYICNVNHKPSNTKVDKKVEPKSCDKTHTCPPCPAPEYLWGPSVFLFPPKPKDTLMISRTPEVTCVVVDVSHEDPEVKFNWYVDGVEVHNAKTKPREEQYNATYRVVSVLTVLHQDWLNGKEYKCKVSNKALPAPIEKTISKAKGQPREPQVYTLPPSRKELTKNQVSLTCLVKGFYPSDIAVEWESNGQPENNYKTTPPVLDSDGSFFLYSKLTVDKSRWQQGNVFSCSVMHEALHNRYTQKSLSLSP heavy 2: QVQLVQSGAEVKKPGASVTVSCKASGYTFTDYEMHWIRQPPGEGLEWIGAIDPKTGDTAYSESFQDRVTLTADKSTSTAYMELSSLTSEDTAVYYCTRFYSYTYWGQGTLVTVSSASTKGPSVFPLAPSSKSTSGGTAALGCLVKDYFPEPVTVSWNSGALTSGVHTFPAVLQSSGLYSLSSVVTVPSSSLGTQTYICNVNHKPSNTKVDKKVEPKSCDKTHTCPPCPAPEYLWGPSVFLFPPKPKDTLMISRTPEVTCVVVDVSHEDPEVKFNWYVDGVEVHNAKTKPREEQYNATYRVVSVLTVLHQDWLNGKEYKCKVSNKALPAPIEKTISKAKGQPREPQVYTLPPSRDELTKNQVSLTCLVKGFYPSDIAVEWESNGQPENNYKTTPPVLDSDGSFFLYSKLTVDKSRWQQGNVFSCSVMHEALHNHYTQESLSLSP light: DIVMTQSPLSLPVTPGEPASISCQASESLVHSNRNTYLHWYLQKPGQSPQLLIYKVSNRFSGVPDRFSGSGSGTDFTLKISRVEAEDVGVYYCSQNTHVPPTFGQGTKVEIERTVAAPSVFIFPPSDEQLKSGTASVVCLLNNFYPREAKVQWKVDNALQSGNSQESVTEQDSKDSTYSLSSTLTLSKADYEKHKVYACEVTHQGLSSPVTKSFNRGEC	3300	–	0.37	0.49	48 relative, GpH7-A5/GpH7-B3/GpL16-k0 = 100
GpH7-TA8/GpH7-B3/GpL16-k0 (antibody, human IgG1, kappa, Heterodimerized anti-glypican-3 IgG1 variant) heavy 1: QVQLVQSGAEVKKPGASVTVSCKASGYTFTDYEMHWIRQPPGEGLEWIGAIDPKTGDTAYSESFQDRVTLTADKSTSTAYMELSSLTSEDTAVYYCTRFYSYTYWGQGTLVTVSSASTKGPSVFPLAPSSKSTSGGTAALGCLVKDYFPEPVTVSWNSGALTSGVHTFPAVLQSSGLYSLSSVVTVPSSSLGTQTYICNVNHKPSNTKVDKKVEPKSCDKTHTCPPCPAPEYLWGPSVFLFPPKPKDTLMISRTPEVTCVVVDVSHEDPEVKFNWYVDGVEVHNAKTKPREEQYNATYRVVSVLTVLHQDWLNGKEYKCKVSNKALRAPIEKTISKAKGQPREPQVYTLPPSRKELTKNQVSLTCLVKGFYPSDIAVEWESNGQPENNYKTTPPVLDSDGSFFLYSKLTVDKSRWQQGNVFSCSVMHEALHNRYTQKSLSLSP heavy 2: not shown light: DIVMTQSPLSLPVTPGEPASISCQASESLVHSNRNTYLHWYLQKPGQSPQLLIYKVSNRFSGVPDRFSGSGSGTDFTLKISRVEAEDVGVYYCSQNTHVPPTFGQGTKVEIERTVAAPSVFIFPPSDEQLKSGTASVVCLLNNFYPREAKVQWKVDNALQSGNSQESVTEQDSKDSTYSLSSTLTLSKADYEKHKVYACEVTHQGLSSPVTKSFNRGEC	–	150 relative, GpH7-A5/GpH7-B3/GpL16-k0 = 100	–	–	–
